From doi:10.1101/636423

Tests used:
[1] = molecular target: whole intracellular region of rat PTPRZ (rat PTPRZ-ICR) (rat) (UniProt Q62656); experiment: inhibition of PTPase catalytic activity
[2] = molecular target: whole intracellular region of rat PTPRZ (rat PTPRZ-ICR) (rat) (UniProt Q62656); experiment: native MS

whole intracellular region of rat PTPRZ (rat PTPRZ-ICR) (rat), sequence (Q62656 1699-2316): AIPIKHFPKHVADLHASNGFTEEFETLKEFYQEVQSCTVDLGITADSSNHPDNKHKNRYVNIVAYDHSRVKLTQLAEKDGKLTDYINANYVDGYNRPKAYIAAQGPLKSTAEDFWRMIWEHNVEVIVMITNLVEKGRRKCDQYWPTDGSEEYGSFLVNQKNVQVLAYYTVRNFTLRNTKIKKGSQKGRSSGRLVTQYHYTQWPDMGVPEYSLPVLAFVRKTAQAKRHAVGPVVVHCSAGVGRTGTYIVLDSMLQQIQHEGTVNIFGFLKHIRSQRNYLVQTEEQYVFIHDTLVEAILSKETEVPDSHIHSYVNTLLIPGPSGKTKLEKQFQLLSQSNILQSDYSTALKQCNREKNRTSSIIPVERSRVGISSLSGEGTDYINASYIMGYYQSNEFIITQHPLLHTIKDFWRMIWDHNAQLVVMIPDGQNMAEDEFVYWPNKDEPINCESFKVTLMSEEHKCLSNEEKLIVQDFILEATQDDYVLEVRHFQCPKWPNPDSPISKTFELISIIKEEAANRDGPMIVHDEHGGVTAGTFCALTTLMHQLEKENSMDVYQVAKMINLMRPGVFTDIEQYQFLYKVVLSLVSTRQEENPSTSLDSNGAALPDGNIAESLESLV
F2Pmp-GIT1_(550–556), non-hydrolyzable pTyr mimetic (F2Pmp)-containing substrate-mimetic inhibitor peptide, sequence (Q9Z272 whole entry, looked up, tested part not stated): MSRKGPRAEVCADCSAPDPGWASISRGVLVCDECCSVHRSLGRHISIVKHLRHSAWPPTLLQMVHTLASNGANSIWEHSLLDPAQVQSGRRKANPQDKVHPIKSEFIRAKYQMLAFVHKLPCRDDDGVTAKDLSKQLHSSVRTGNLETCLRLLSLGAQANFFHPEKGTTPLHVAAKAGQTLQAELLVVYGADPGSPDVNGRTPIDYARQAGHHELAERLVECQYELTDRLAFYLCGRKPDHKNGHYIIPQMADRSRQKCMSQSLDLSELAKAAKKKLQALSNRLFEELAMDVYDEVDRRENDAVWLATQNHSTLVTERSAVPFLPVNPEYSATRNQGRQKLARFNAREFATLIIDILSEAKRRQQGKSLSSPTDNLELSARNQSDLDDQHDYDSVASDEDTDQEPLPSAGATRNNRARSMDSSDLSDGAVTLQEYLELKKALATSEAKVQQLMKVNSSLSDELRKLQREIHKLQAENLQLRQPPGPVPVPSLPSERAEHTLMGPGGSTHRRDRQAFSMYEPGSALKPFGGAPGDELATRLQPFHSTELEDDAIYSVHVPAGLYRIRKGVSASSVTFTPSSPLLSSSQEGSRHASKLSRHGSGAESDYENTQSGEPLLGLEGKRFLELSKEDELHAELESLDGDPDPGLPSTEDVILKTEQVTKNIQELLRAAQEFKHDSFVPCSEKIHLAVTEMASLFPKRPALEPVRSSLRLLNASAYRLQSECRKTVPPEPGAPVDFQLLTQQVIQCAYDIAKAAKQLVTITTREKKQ

“F2Pmp-GIT1_(550–556), non-hydrolyzable pTyr mimetic (F2Pmp)-containing substrate-mimetic inhibitor peptide (from UniProt Q9Z272 550-556)” showed a Ki [1] of 3.1 µM and a stoichiometry N [2] of 1.
